Experimental data: US20250136938A1

Biological target: KRAS^G12V-reactive TCR (Pt. 4148)
Assay: tetramer staining, flow cytometry on 41BB-enriched CD8 memory T cells of Pt. 4148

- percent of memory CD8 cells in the culture bound by tetramer: 15.9%
Substance: HLA-A*11:01-KRAS^G12V 9-mer tetramer (from UniProt P01116 8-16; P61769 21-119) (peptide-MHC)
